According to US10500249B2, “Compositions and methods for preventing or treating diseases, conditions, or processes characterized by aberrant fibroblast proliferation and extracellular matrix deposition” (MOERAE MATRIX, INC., priority 2014, dated 2019):

Legend:
Assay in all cases: Kinase Profiling Assay
Assay type in all cases: biochemical
Conditions in all cases: 100 μM
[1] = target: T1, CDK2/cyclinE (h) (Homo sapiens, UniProt P24941)
T1 construct: purchased Millipore
Summary of the method: (§1)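 Each kinase activity was measured in duplicate. Phosphorylation of a positively charged substrate with radiolabeled phosphate from ATP was captured on a negatively charged filter, counted by scintillation and expressed relative to a 100% activity control. MK2 inhibitory peptides were screened for specificity across 266 human kinases.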

[2] = target: Axl (h) (Homo sapiens, UniProt P30530)
Summary of the method: as §1

[3] = target: LOK (h) (Homo sapiens, UniProt O94804)
LOK (h), sequence (O94804 whole entry): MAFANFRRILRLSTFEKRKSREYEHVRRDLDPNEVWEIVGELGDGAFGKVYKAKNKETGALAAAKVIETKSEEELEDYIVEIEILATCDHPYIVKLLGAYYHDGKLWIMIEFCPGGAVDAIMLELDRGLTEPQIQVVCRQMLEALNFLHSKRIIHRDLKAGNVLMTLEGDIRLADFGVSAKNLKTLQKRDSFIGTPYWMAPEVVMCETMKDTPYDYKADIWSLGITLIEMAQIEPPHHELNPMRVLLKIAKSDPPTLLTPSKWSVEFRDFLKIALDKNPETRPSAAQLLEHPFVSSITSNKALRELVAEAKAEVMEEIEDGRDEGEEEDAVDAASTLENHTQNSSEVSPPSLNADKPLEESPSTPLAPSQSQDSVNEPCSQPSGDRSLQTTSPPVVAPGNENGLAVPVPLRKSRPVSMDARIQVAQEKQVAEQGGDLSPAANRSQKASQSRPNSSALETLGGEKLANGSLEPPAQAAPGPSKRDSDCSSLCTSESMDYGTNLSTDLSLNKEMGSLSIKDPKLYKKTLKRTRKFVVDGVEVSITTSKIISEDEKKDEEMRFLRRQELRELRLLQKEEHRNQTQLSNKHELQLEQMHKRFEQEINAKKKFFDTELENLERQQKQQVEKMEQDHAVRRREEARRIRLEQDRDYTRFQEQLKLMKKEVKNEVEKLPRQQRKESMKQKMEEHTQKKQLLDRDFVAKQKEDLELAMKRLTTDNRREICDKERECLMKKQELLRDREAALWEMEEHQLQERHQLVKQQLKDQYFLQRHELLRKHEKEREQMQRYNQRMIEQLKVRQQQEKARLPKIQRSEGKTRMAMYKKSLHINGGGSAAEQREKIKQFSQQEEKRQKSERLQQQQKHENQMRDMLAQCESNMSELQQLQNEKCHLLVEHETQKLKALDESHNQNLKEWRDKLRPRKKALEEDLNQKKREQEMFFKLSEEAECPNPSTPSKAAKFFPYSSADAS
Summary of the method: as §1

[4] = target: T2, Pim-3 (h) (Homo sapiens, UniProt Q86V86)
T2 construct: purchased Millipore
Summary of the method: as §1

[5] = target: T3, CaMKIδ (h) (Homo sapiens, UniProt Q8IU85)
T3 construct: purchased Millipore
T3 sequence (Q8IU85 whole entry): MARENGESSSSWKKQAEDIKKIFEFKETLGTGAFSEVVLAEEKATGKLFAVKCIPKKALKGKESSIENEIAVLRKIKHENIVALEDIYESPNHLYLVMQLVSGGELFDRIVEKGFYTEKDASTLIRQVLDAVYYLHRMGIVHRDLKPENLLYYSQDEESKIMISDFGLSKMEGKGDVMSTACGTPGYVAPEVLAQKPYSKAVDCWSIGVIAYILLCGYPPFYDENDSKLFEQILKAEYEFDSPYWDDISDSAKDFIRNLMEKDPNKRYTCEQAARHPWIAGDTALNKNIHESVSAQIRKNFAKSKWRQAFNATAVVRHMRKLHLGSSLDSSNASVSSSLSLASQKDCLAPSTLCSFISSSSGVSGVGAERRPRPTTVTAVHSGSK
Summary of the method: as §1

[6] = target: Pyk2 (h) (Homo sapiens, UniProt Q14289)
Pyk2 (h), sequence (Q14289 whole entry): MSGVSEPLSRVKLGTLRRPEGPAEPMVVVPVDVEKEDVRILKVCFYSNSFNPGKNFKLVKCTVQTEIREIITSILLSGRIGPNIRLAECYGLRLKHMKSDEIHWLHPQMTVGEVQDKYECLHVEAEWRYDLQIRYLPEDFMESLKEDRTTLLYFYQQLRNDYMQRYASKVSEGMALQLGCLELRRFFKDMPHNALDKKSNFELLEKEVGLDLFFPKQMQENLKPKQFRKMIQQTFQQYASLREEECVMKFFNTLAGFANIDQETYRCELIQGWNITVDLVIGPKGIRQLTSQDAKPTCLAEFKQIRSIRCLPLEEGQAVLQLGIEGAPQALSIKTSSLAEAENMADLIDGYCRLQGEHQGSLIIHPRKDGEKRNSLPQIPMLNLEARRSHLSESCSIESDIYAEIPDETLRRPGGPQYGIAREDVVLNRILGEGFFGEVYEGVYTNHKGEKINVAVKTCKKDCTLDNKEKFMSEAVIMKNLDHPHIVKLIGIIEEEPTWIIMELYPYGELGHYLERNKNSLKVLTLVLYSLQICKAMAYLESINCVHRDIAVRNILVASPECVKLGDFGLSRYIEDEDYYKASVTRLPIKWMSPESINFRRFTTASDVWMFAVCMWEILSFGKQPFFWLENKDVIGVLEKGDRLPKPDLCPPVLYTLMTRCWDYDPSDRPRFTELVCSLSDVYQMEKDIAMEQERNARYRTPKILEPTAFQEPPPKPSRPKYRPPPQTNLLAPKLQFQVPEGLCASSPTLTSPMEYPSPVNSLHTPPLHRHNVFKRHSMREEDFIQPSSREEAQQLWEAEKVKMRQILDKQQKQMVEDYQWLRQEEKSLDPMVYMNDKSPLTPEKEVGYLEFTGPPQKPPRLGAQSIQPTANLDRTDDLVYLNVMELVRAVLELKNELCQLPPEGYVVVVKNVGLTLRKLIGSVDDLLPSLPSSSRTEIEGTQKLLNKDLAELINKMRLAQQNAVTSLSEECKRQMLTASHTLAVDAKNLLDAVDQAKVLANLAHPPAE
Summary of the method: as §1

[7] = target: PTK5 (h) (Homo sapiens, UniProt P42685)
PTK5 (h), sequence (P42685 whole entry): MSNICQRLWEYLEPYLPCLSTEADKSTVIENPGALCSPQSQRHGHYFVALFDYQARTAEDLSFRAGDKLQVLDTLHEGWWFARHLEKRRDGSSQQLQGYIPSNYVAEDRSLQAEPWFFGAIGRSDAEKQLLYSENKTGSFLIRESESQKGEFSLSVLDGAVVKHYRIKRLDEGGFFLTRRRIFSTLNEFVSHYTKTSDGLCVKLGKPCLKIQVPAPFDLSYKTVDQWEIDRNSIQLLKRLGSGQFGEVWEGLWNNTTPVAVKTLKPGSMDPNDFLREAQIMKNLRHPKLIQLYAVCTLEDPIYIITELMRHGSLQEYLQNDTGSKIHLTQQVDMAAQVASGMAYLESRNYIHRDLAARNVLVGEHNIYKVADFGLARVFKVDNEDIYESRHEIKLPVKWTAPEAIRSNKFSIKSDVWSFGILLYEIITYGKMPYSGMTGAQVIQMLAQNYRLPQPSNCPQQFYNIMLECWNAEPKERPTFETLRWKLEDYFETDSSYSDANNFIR
Summary of the method: as §1

[8] = target: T4, Haspin (h) (Homo sapiens, UniProt Q8TF76)
T4 construct: purchased Millipore
T4 sequence (Q8TF76 1-798): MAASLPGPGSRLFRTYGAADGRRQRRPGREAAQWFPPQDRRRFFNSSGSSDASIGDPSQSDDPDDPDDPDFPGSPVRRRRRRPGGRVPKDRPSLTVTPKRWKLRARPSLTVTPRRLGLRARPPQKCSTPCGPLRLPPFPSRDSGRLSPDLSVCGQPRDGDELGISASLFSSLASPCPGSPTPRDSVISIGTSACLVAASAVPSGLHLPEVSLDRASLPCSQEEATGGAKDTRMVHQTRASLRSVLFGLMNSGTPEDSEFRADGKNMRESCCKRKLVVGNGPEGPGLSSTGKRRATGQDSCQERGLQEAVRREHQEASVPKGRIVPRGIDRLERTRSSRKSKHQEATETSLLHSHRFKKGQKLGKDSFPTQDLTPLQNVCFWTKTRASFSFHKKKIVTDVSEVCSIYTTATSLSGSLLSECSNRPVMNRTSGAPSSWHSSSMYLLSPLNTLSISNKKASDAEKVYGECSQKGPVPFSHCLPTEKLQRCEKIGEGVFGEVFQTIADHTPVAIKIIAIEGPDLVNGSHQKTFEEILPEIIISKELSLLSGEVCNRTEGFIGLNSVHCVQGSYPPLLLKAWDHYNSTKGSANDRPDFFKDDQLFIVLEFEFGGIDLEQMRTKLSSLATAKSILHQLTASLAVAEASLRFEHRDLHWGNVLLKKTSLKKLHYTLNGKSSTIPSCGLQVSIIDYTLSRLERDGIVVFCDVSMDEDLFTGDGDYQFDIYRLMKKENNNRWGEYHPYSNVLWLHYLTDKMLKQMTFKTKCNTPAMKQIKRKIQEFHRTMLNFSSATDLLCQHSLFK
Summary of the method: as §1

[9] = target: RIPK2 (h) (Homo sapiens, UniProt O43353)
RIPK2 (h), sequence (O43353 whole entry): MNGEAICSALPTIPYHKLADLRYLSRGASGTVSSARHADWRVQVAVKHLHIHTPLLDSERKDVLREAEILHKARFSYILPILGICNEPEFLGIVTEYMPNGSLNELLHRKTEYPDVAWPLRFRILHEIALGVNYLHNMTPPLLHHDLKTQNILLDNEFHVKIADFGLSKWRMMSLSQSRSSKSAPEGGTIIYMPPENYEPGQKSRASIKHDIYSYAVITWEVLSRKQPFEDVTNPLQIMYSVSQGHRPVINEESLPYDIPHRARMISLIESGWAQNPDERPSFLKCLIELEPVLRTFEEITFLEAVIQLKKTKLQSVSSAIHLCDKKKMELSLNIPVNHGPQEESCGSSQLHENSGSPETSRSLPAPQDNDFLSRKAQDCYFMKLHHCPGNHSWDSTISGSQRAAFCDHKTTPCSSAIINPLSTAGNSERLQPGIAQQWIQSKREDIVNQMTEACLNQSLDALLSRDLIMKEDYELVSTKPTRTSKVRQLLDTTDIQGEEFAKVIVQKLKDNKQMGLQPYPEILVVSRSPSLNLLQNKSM
Summary of the method: as §1

[10] = target: T5, Pim-1 (h) (Homo sapiens, UniProt P11309)
T5 construct: purchased Millipore
T5 sequence (P11309 whole entry): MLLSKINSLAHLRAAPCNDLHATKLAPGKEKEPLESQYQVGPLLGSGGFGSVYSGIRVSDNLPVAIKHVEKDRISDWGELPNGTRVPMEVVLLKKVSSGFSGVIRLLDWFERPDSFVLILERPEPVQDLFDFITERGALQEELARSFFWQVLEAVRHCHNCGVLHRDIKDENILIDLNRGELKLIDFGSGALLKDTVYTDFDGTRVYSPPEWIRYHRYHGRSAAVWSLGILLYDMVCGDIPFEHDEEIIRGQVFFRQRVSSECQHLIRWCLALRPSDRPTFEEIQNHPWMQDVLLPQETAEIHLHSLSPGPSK
Summary of the method: as §1

[11] = target: T6, mTOR/FKBP12 (h) (Homo sapiens, UniProt P42345)
T6 construct: purchased Millipore
Summary of the method: as §1

[12] = target: T7, ULK3 (h) (Homo sapiens, UniProt Q6PHR2)
T7 sequence (Q6PHR2 1-472): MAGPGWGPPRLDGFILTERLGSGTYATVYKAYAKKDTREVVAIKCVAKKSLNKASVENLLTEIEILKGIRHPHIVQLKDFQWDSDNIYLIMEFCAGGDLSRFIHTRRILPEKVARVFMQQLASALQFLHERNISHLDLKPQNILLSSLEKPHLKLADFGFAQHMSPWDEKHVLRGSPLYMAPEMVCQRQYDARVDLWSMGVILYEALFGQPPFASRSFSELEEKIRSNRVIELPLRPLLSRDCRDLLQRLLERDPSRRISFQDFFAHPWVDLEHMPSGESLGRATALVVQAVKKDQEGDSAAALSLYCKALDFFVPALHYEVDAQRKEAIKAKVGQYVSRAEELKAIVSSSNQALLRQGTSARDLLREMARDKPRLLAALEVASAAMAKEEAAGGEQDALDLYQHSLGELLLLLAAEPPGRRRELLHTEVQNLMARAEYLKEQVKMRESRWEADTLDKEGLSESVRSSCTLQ
Summary of the method: as §1

[13] = target: T8, Mnk2 (h) (Homo sapiens, UniProt Q9HBH9)
T8 construct: purchased Millipore
T8 sequence (Q9HBH9 whole entry): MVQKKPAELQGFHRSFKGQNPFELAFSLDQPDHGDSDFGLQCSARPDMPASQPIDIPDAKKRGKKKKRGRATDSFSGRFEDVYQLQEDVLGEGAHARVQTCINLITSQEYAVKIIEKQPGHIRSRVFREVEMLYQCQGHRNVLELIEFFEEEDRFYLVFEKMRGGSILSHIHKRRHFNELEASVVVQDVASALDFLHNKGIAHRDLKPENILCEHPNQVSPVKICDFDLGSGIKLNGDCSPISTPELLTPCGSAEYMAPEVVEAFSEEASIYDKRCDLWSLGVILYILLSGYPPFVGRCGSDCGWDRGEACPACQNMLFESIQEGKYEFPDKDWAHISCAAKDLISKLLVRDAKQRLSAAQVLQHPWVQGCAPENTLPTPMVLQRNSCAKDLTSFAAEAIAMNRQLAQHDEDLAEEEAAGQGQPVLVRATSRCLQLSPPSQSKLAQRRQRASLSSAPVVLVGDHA
Summary of the method: as §1

[14] = target: T9, SGK2 (h) (Homo sapiens, UniProt Q9HBY8)
T9 sequence (Q9HBY8 1-367): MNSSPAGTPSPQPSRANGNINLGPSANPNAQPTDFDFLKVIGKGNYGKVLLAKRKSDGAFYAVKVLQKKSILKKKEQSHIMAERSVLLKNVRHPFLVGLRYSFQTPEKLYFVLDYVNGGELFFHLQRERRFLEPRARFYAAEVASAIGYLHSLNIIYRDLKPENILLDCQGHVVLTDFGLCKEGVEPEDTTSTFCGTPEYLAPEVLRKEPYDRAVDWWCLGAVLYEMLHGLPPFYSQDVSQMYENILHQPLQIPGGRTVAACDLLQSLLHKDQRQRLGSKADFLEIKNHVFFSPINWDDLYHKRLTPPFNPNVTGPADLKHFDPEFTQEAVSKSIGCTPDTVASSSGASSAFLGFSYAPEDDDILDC
Summary of the method: as §1

[15] = target: Met(Y1248H) (h) (Homo sapiens, UniProt P08581, Y1230H)
Summary of the method: as §1

[16] = target: BTK (h) (Homo sapiens, UniProt Q06187)
BTK (h), sequence (Q06187 whole entry): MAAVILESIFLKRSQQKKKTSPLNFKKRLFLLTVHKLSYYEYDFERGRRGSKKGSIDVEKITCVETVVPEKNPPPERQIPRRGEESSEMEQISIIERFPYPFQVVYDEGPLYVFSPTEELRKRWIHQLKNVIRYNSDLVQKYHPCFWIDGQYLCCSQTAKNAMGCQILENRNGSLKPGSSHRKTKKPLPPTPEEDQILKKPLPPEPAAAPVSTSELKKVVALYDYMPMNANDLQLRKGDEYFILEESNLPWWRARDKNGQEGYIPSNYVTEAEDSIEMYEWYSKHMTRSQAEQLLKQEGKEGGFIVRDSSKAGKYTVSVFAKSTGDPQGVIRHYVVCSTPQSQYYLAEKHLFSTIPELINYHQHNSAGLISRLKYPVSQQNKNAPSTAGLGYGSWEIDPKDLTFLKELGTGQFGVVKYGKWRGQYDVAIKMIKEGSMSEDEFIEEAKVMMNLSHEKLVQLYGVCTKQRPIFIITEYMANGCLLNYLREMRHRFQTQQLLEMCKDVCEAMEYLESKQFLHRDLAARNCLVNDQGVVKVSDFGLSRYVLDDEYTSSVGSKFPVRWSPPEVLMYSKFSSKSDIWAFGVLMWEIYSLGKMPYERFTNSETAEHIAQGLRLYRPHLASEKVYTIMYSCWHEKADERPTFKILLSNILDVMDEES
Summary of the method: as §1

| Sequence | % activity [1] [%] | % activity [2] [%] | % activity [3] [%] | % activity [4] [%] | % activity [5] [%] | % activity [6] [%] | % activity [7] [%] | % activity [8] [%] | % activity [9] [%] | % activity [10] [%] | % activity [11] [%] | % activity [12] [%] | % activity [13] [%] | % activity [14] [%] | % activity [15] [%] | % activity [16] [%] |
| --- | --- | --- | --- | --- | --- | --- | --- | --- | --- | --- | --- | --- | --- | --- | --- | --- |
| FAKLAARLYRKALARQLGVAA [MMI-0300] | 94 | 52 | 37 | 80 | 10 | 47 | 132 | 48 | 97 | 8 | 145 | 167 | 89 | 56 |  |  |
| HRRIKAWLKKIKALARQLGVAA (Mammalian) [MMI-0500] | 19 | 12 | 7 | 37 | 0 | 46 | 96 | 25 | 30 | 0 | 140 | 177 | 6 | −1 | 126 | 18 |
| KAFAKLAARLYRKALARQLGVAA [MMI-0400] | 83 | 41 | 18 | 80 | 17 | 34 | 129 | 36 | 98 | 7 | 125 | 147 | 86 | 98 | 63 | 94 |
| YARAAARQARAKALNRQLGVA (Mammalian) [MMI-0200] |  | 99 | 67 | 94 | 47 | 127 | 108 | 71 | 98 | 18 | 118 | 164 |  |  | 153 | 100 |
